From paper PMC3724861

What follows are sequences tested against T1, Caup homeodomain (Drosophila melanogaster) (UniProt P54269). Conditions: PBM.
T1 sequence: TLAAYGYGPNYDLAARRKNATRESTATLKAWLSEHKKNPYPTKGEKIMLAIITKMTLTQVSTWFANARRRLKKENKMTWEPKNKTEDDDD

Row | Sequence | binding signal (minimum E-score of the two 8-mers)
1 | ACATGTACA (double strand) [9-mer ACATGTACA] | 0.469
2 | CTACATGTC (double strand) [9-mer CTACATGTC] | 0.476
3 | AACATGTAT (double strand) [9-mer AACATGTAT] | 0.469
4 | ATACATGTA (double strand) [9-mer ATACATGTA] | 0.469
5 | AACATGTAG (double strand) [9-mer AACATGTAG] | 0.476
6 | AACATGTAC (double strand) [9-mer AACATGTAC] | 0.48
7 | TACATGTCA (double strand) [9-mer TACATGTCA] | 0.461
8 | GACATGTAA (double strand) [9-mer GACATGTAA] | 0.468
9 | GACATGTAC (double strand) [9-mer GACATGTAC] | 0.477
10 | ATACATGTC (double strand) [9-mer ATACATGTC] | 0.469
11 | ATGTACATG (double strand) [9-mer ATGTACATG] | 0.469
12 | GTACATGTA (double strand) [9-mer GTACATGTA] | 0.48
13 | CTACATGTA (double strand) [9-mer CTACATGTA] | 0.476
14 | AACATGTAA (double strand) [9-mer AACATGTAA] | 0.468
15 | TACATGTAA (double strand) [9-mer TACATGTAA] | 0.468
